T1: FHHDbf2-H6Mob1TM9 (Saccharomyces cerevisiae, UniProt P22204+P40484)
T1 construct: made in house; host or cells: Hi5 insect cells (baculovirus)
T1 sequence (P22204 1-572): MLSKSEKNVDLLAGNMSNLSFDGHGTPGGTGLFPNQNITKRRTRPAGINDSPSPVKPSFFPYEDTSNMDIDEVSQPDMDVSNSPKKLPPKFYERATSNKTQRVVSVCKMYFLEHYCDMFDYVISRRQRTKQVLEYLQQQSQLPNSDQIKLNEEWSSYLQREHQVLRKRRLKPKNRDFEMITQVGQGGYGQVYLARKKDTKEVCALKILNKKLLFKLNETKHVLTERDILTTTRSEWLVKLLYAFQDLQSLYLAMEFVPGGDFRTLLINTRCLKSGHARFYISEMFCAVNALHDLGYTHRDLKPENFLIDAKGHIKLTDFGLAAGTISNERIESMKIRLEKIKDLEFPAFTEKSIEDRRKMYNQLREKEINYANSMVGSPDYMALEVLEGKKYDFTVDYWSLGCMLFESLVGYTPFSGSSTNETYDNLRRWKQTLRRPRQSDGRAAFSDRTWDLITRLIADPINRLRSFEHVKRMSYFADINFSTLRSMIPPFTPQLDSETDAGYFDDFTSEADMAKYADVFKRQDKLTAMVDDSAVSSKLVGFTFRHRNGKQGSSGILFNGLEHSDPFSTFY
T1 sequence (P40484 1-314 partner): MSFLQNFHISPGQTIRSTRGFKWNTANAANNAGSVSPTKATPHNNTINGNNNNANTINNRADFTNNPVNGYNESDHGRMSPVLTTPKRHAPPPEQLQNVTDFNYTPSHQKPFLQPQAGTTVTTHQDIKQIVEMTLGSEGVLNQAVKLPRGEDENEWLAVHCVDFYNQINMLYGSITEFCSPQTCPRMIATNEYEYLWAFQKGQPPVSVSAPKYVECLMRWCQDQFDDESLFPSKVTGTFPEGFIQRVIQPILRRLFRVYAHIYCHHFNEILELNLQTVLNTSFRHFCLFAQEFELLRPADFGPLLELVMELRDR

B1: YPL211W: GST fusion yeast protein on proteome chip (protein, UniProt Q08962 1-181, looked up)
60S ribosome subunit …: MRQLTEEETKVVFEKLAGYIGRNISFLVDNKELPHVFRLQKDRVYYVPDHVAKLATSVARPNLMSLGICLGKFTKTGKFRLHITSLTVLAKHAKYKIWIKPNGEMPFLYGNHVLKAHVGKMSDDIPEHAGVIVFAMNDVPLGFGVSAKSTSESRNMQPTGIVAFRQADIGEYLRDEDTLFT
modifications: GST tag
notes: GST fusion yeast protein on proteome chip
B2: YGL105W: GST fusion yeast protein on proteome chip (protein, UniProt P46672 1-376, looked up)
tRNA-aminoacylation cofactor …: MSDLVTKFESLIISKYPVSFTKEQSAQAAQWESVLKSGQIQPHLDQLNLVLRDNTFIVSTLYPTSTDVHVFEVALPLIKDLVASSKDVKSTYTTYRHILRWIDYMQNLLEVSSTDKLEINHDLDLPHEVIEKKKKAPAGGAADAAAKADEDVSKKAKKQDHPRGKPDEETLKKLREEAKAKKAAKKAANAKQQQEQQNKAPEKPKPSAIDFRVGFIQKAIKHPDADSLYVSTIDVGDEEGPRTVCSGLVKHFPLDAMQERYVVVVCNLKPVNMRGIKSTAMVLCGSNDDKVEFVEPPKDSKAGDKVFFEGFGDEAPMKQLNPKKKIWEHLQPHFTTNDGLEVIFKDEEEKDHPVRKLTNAKGESFKVASIANAQVR
modifications: GST fusion
notes: as for B1
B3: YOL104C: GST fusion yeast protein on proteome chip (protein, UniProt Q12366 1-352, looked up)
Non-disjunction protein 1: MSKDNRLASILLQPVASSSGNCTEFHDSKLHTLQEELNFLPLEGVASNVCPPMFRGHKNYVFVLYCLNQVDLVTNLQDSTKRYYPLQIFKDCQLSSLVQKDFSHYFQLSRQKEGEDRNDSDTTLVNVVNSGVSRHRSQLLKMCIIPRICSFDKSNSKTYKLIQEYVNRFETVLTKFGPEKDFTKVYANWSKLIESFNELILHDLLVKWQQWSELTQPNATVHQNIPNVLRELVIKLTQRYFTFQPSYSCSIDEFTTILLNKNALSLLDVFRKPRKYKLNFGLWLDCQNGILIFTNGIVQMADEITSERVKSFVRPAHLLVLEDHSNDEAVKKLMFFTFSAILQCFTDEILNC
modifications: GST tag
notes: as for B1
B4: YML035C: GST fusion yeast protein on proteome chip (protein, UniProt P15274 1-810, looked up)
AMP deaminase: MDNQATQRLNDLSLEPAPSHDEQDGSGLVIDIDQRKIGDEQAGVVVDDETPPLEQQDSHESLAADSRNANFSYHENQQLLENGTKQLALDEHDSHSAILEQPSHSTNCSSSNIAAMNKGHDSADHASQNSGGKPRTLSASAQHILPETLKSFAGAPVVNKQVRTSASYKMGMLADDASQQFLDDPSSELIDLYSKVAECRNLRAKYQTISVQNDDQNPKNKPGWVVYPPPPKPSYNSDTKTVVPVTNKPDAEVFDFTKCEIPGEDPDWEFTLNDDDSYVVHRSGKTDELIAQIPTLRDYYLDLEKMISISSDGPAKSFAYRRLQYLEARWNLYYLLNEYQETSVSKRNPHRDFYNVRKVDTHVHHSACMNQKHLLRFIKHKLRHSKDEKVIFRDGKLLTLDEVFRSLHLTGYDLSIDTLDMHAHKDTFHRFDKFNLKYNPIGESRLREIFLKTNNYIKGTYLADITKQVIFDLENSKYQNCEYRISVYGRSLDEWDKLASWVIDNKVISHNVRWLVQIPRLYDIYKKTGIVQSFQDICKNLFQPLFEVTKNPQSHPKLHVFLQRVIGFDSVDDESKVDRRFHRKYPKPSLWEAPQNPPYSYYLYYLYSNVASLNQWRAKRGFNTLVLRPHCGEAGDPEHLVSAYLLAHGISHGILLRKVPFVQYLYYLDQVGIAMSPLSNNALFLTYDKNPFPRYFKRGLNVSLSTDDPLQFSYTREPLIEEYSVAAQIYKLSNVDMCELARNSVLQSGWEAQIKKHWIGKDFDKSGVEGNDVVRTNVPDIRINYRYDTLSTELELVNHFANFKRTIEEK
modifications: GST tag
notes: as for B1
B5: YIL010W: GST fusion yeast protein on proteome chip (protein, UniProt P40553 1-215, looked up)
Peroxiredoxin DOT5: MGEALRRSTRIAISKRMLEEEESKLAPISTPEVPKKKIKTGPKHNANQAVVQEANRSSDVNELEIGDPIPDLSLLNEDNDSISLKKITENNRVVVFFVYPRASTPGCTRQACGFRDNYQELKKYAAVFGLSADSVTSQKKFQSKQNLPYHLLSDPKREFIGLLGAKKTPLSGSIRSHFIFVDGKLKFKRVKISPEVSVNDAKKEVLEVAEKFKEE
modifications: GST tag
notes: as for B1
B6: YDR299W: GST fusion yeast protein on proteome chip (protein, UniProt Q06631 1-534, looked up)
Protein BFR2: MEKSLADQISDIAIKPVNKDFDIEDEENASLFQHNEKNGESDLSDYGNSNTEETKKAHYLEVEKSKLRAEKGLELNDPKYTGVKGSRQALYEEVSENEDEEEEEEEEEEKEEDALSFRTDSEDEEVEIDEEESDADGGETEEAQQKRHALSKLIQQETKQAINKLSQSVQRDASKGYSILQQTKLFDNIIDLRIKLQKAVIAANKLPLTTESWEEAKMDDSEETKRLLKENEKLFNNLFNRLINFRIKFQLGDHITQNEEVAKHKLSKKRSLKELYQETNSLDSELKEYRTAVLNKWSTKVSSASGNAALSSNKFKAINLPADVQVENQLSDMSRLMKRTKLNRRNITPLYFQKDCANGRLPELISPVVKDSVDDNENSDDGLDIPKNYDPRRKDNNAIDITENPYVFDDEDFYRVLLNDLIDKKISNAHNSESAAITITSTNARSNNKLKKNIDTKASKGRKLNYSVQDPIANYEAPITSGYKWSDDQIDEFFAGLLGQRVNFNENEDEEQHARIENDEELEAVKNDDIQIFG
modifications: GST tag
notes: as for B1
B7: YKL146W: GST fusion yeast protein on proteome chip (protein, UniProt P36062 1-692, looked up)
Vacuolar amino acid …: MNGKEVSSGSGRTQSNNNKKNNNGGSTGISHASGSPLTDGNGGNSNGNSRSRSRSRKSSGTTGGLLKKPPLLVNNEAVHASVPDASHTSCNNGTLEVSINNPEPHVVDAVARHLIRNPSNSLQLQGGDITRDLYKWTNDHPSSPSQYQYPSQPALSTSIPSQAPSFSNRKRSMSFSAASIASSSHLNNNSEANGNPLAAIGLAPAPMTHEEIRAPGGFRRSFIIQKRRKHNVDAPIPNFFTRNFIEFLTLYGHFAGEDLSEEEEEEEETEEEPEEEALETESTQLVSREHGRHPHKSSTVKAVLLLLKSFVGTGVLFLPKAFHNGGWGFSALCLLSCALISYGCFVSLITTKDKVGVDGYGDMGRILYGPKMKFAILSSIALSQIGFSAAYTVFTATNLQVFSENFFHLKPGSISLATYIFAQVLIFVPLSLTRNIAKLSGTALIADLFILLGLVYVYVYSIYYIAVNGVASDTMLMFNKADWSLFIGTAIFTFEGIGLLIPIQESMKHPKHFRPSLSAVMCIVAVIFISCGLLCYAAFGSDVKTVVLLNFPQDTSYTLTVQLLYALAILLSTPLQLFPAIRILENWTFPSNASGKYNPKVKWLKNYFRCAIVVLTSILAWVGANDLDKFVSLVGSFACIPLIYIYPPLLHYKASILSGTSRARLLLDLIVIVFGVAVMAYTSWQTIKMWSQ
modifications: GST tag
notes: as for B1
B8: YGR264C: GST fusion yeast protein on proteome chip (protein, UniProt P00958 2-751, looked up)
Methionine--tRNA ligase, …: SFLISFDKSKKHPAHLQLANNLKIALALEYASKNLKPEVDNDNAAMELRNTKEPFLLFDANAILRYVMDDFEGQTSDKYQFALASLQNLLYHKELPQQHVEVLTNKAIENYLVELKEPLTTTDLILFANVYALNSSLVHSKFPELPSKVHNAVALAKKHVPRDSSSFKNIGAVKIQADLTVKPKDSEILPKPNERNILITSALPYVNNVPHLGNIIGSVLSADIFARYCKGRNYNALFICGTDEYGTATETKALEEGVTPRQLCDKYHKIHSDVYKWFQIGFDYFGRTTTDKQTEIAQHIFTKLNSNGYLEEQSMKQLYCPVHNSYLADRYVEGECPKCHYDDARGDQCDKCGALLDPFELINPRCKLDDASPEPKYSDHIFLSLDKLESQISEWVEKASEEGNWSKNSKTITQSWLKDGLKPRCITRDLVWGTPVPLEKYKDKVLYVWFDATIGYVSITSNYTKEWKQWWNNPEHVSLYQFMGKDNVPFHTVVFPGSQLGTEENWTMLHHLNTTEYLQYENGKFSKSRGVGVFGNNAQDSGISPSVWRYYLASVRPESSDSHFSWDDFVARNNSELLANLGNFVNRLIKFVNAKYNGVVPKFDPKKVSNYDGLVKDINEILSNYVKEMELGHERRGLEIAMSLSARGNQFLQENKLDNTLFSQSPEKSDAVVAVGLNIIYAVSSIITPYMPEIGEKINKMLNAPALKIDDRFHLAILEGHNINKAEYLFQRIDEKKIDEWRAKYGGQQV
modifications: GST tag
notes: as for B1

The molecules below were run against T1, FHHDbf2-H6Mob1TM9 (assay: Yeast proteome chip assay). Conditions: Table 3; GST fusion proteins on proteome chip, [γ-33P]ATP, chips in duplicate, computer analysis.
Type: biochemical
Experimental: The relatively low sequence complexity of the Dbf2 phosphorylation motif diminished the power of using genome-wide bioinformatics screens to identify putative substrates. Accordingly, we carried out a proteome array screen to identify putative yeast substrates. […] After taking into account the proteins phosphorylated in the negative controls, 67 proteins were determined to be putative Dbf2-Mob1 substrates (Table 3).
Yeast proteome microarrays were prepared as previously described. Overexpressed GST-tagged yeast proteins were purified from ~4,400 yeast strains and spotted on slides. To determine the optimal amount of kinase to use for probing proteome chips, we performed trial assays as described (J. Ptacek et al., submitted). […] The full proteome array was probed with 4 μl ^FHHDbf2-^H6Mob1^TM9 in 200 μl of DKB supplemented with [γ-^33P]ATP. As a control, ^FHHDbf2(N305A)-^H6Mob1^TM9 was used to probe the proteome array. […] To control for autophosphorylated proteins, the proteome array was probed with 200 μl of DKB supplemented with [γ-^33P]ATP. Proteome chips were assayed in duplicate in each case. Data analysis was performed as described (J. Ptacek et al., submitted). Briefly, signals were analyzed by a computer algorithm designed to normalize background and identify signals as positive if 3 of 4 spots (each protein is spotted twice on each slide and each kinase or control was tested on 2 slides) were 2 standard deviations above background and the fourth spot was 1.5 standard deviations above background.

Compared with B1, B2 is lower in “Slide Signal (after normalization)” value: 0.4521 for the first, 0.1332 for the second.

First: B3
Second: B4
The “Slide Signal (after normalization)” value of the first is higher: 0.3611 for the first, 0.1384 for the second.

Compared with B5, B6 is higher in “Slide Signal (after normalization)” value: 0.2606 for the first, 0.47 for the second.

Compared with B7, B8 is lower in “Slide Signal (after normalization)” value: 0.3592 for the first, 0.1328 for the second.

From publication PMC1277818, “Substrate specificity analysis of protein kinase complex Dbf2-Mob1 by peptide library and proteome array screening” (BMC Biochemistry, 2005)
